From patent publication US20040157227A1, “Reproductive cancer diagnosis and therapy” (priority 2001, published 2004)
Blank lines part the entries; values can stand above or below the molecule they belong to.

Assays:
[1] = target: growth hormone secretagogue receptor type 1a (human) (UniProt Q92847); assay: cell-based or functional assay
MDA-MB 231 cells = assay: Cell proliferation assay (MTT dye method), MDA-MB 231 cells; type: cell-based, human; conditions: ghrelin 0-20 nM, 3 days, 10% FCS
Procedure: (§1) FIG. 14: The effect of ghrelin on MDA-MB231 and Ishikawa cells. Cell proliferation was determined using the MTT dye method. Absorbance readings for each were converted to percentages above control±SEM, indicated by error bars. * denotes P values <0.01, ** P<0.001 (one-way ANOVA with Tukey's post hoc comparisons).
(§2) PC3, MDAMB231 and Ishikawa cells were cultured in 96 well plates for 3 days at 37° C. in the presence of ghrelin (0-20 nM), in 10% FCS. Negative controls received no treatment. After aspiration of medium, cells were incubated in MTT (Sigma) solution (0.5 mg/ml) for 2h. MTT solution was aspirated and formazan salts solubilised in dimethyl sulfoxide (ICN, Costa Mesa, Calif.). A Biomeck Plate reader (Beckman, QLD, Australia) was used to measure absorbances (550/650nm).

Ishikawa cells = assay: Cell proliferation assay (MTT dye method), Ishikawa cells; type: cell-based, human; conditions: ghrelin 0-20 nM, 3 days, 10% FCS
Procedure: as §1, §2

PC3 cells = assay: Cell proliferation assay (MTT dye method), PC3 cells; type: cell-based, human; conditions: 5 nM ghrelin, 3 days, 10% FCS
Procedure: as §1, with “13:” for “14:”, “PC3” for “MDA-MB231 and Ishikawa”, “percentage” for “percentages”, “comparisons). Data represents one of 3 identical experiments, each n=16.” for “comparisons).”
as §2

UniProt Q92847, sequence (Q92847 whole entry): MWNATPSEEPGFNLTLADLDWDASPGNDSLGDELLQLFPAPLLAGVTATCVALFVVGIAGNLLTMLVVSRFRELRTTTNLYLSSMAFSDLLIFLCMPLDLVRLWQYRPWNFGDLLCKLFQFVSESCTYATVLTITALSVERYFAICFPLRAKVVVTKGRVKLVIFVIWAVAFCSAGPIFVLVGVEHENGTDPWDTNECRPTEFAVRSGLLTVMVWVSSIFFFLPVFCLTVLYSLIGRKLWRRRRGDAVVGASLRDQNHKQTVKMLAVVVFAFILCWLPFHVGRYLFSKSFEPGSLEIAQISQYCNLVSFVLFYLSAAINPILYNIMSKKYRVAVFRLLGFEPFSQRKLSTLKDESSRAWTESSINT

Cell proliferation of PC3 cells (MTT dye method) (% above controls) [1]: 33
Molecule: human ghrelin (from UniProt Q9UBU3 24-117) (peptide)

B1: ghrelin (peptide)
peptide: GSSFLSPEHQRVQQRKESKKPPAKLQPRALAGWLRPEDGGQAEGAEDELEVRFNAPFDVGIKLSGVQYQQHSQALGKFLQDILWEEAKEAPADK
notes: endogenous ligand for the GHS-R, a 28 amino acid peptide
dose related increase in cell proliferation above untreated controls (peak) (MDA-MB 231 cells): 25%
dose related increase in cell proliferation above untreated controls (peak) (Ishikawa cells): 19%
viable cell numbers increased above controls (peak of dose-related increase) (PC3 cells): 33%
